Test results from patent US20190194310A1 (NUMAB INNOVATION, published 2019).

B1: humanized scFv 16-02-B03-sc02 (scFv)
scFv: MDIQMTQSPSSLSASVGDRVTITCQSSQSVYSSNLAWYQQKPGKAPKLLIYSASKLASGVPSRFSGSGSGTDFTLTISSLQPEDEATYYCQGTYYTSNWLNAFGGGTKLTVLGGGGGSGGGGSGGGGSGGGGSEVQLVESGGGLVQPGGSLRLSCAASGIDLSSYAMGWVRQAPGKGLEWIGTISVGGSTYYANWAEGRFTISRDNSKNTVYLQMNSLRAEDTAVYYCAGGDYINFFYFNIWGQGTLVTVSS
notes: CDR graft on a Vκ1/VH3 scaffold; also called 16-02-B03-sc02 (CDR); 16-02-B03-sc02-scFv
B2: recombinant human TNFβ (ligand, UniProt P01374 35-205, looked up)
chain: LPGVGLTPSAAQTARQHPKMHLAHSTLKPAAHLIGDPSKQNSLLWRANTDRAFLQDGFSLSNNSLLVPTSGIYFVYSQVVFSGKAYSPKATSSPLYLAHEVQLFSSQYPFHVPLLSSQKMVYPGLQEPWLHSMYHGAAFQLTQGDQLSTHTDGIPHLVLSPSTVFFGAFAL

Tests used:
recombinant human TNFβ = biological target: B2; experiment: competition ELISA: scFv coated, biotinylated TNFα, unlabeled TNFβ as competitor
Procedure: To control precision of the response, the dose-response curves was analyzed in duplicate.

recombinant human TNFα [1] = biological target: T1, recombinant human TNFα (human, UniProt P01375 77-233); experiment: inhibition ELISA; biotinylated TNFα 960 pM pre-incubated with scFv; competitor TNFRII-Fc coated
T1 construct: also called TNFα trimer; biotinylated TNFα
T1 sequence (P01375 77-233 limits assumed): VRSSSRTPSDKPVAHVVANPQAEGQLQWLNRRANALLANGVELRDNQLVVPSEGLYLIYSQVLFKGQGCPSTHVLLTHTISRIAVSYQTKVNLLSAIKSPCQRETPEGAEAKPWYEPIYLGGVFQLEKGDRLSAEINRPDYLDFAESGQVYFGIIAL
Procedure: For the second inhibition ELISA, the extracellular domain of TNFRII fused to the Fc region of human IgG (R&D Systems, Cat. No. 726-R2) was coated at a concentration of 2 μg/mL. All subsequent steps were identical for both assays.

recombinant human TNFα [2] = biological target: T1, recombinant human TNFα; experiment: inhibition ELISA; biotinylated TNFα 960 pM pre-incubated with scFv; competitor TNFRI-Fc coated
Rhesus monkey TNFα [3] = biological target: T2, Rhesus monkey TNFα (Rhesus monkey (Macaca mulatta), UniProt P48094 77-233); experiment: SPR (MASS-1); TNFα amine-coupled on chip, scFv injected 45-1.4 nM
T2 construct: also called Rhesus TNFα; Macaca mulatta TNFα
T2 sequence (P48094 77-233 limits assumed): as the sequence (P01375 77-233 limits assumed) above, with R44T, T72N, R138L counted along it
Procedure: (§1) In a second step, Single Injection Cycle Kinetics (SiCK) were measured from a single injection cycle by simultaneously injecting six analyte samples at different concentrations into each of the eight parallel channels in the MASS-1 system. […] The apparent dissociation (kd) and association (kₐ) rate constants and the apparent dissociation equilibrium constant (KD) were calculated with the MASS-1 analysis software (Analyzer, Sierra Sensors) using one-to-one Langmuir binding model and quality of the fits was monitored based on Chi², which is a measure for the quality of the curve fitting. The smaller the value for the Chi² the more accurate is the fitting to the one-to-one Langmuir binding model. For affinity screenings, results were deemed valid if the Chi² was below 10 for the concentration analyzed. In cases where several scFv concentrations were analyzed, results were deemed valid if the average Chi² over all the concentrations tested was below 10.

recombinant human TNFα [4] = biological target: T1, recombinant human TNFα; experiment: as above
Procedure: as §1

[5] = biological target: T3, recombinant Cynomolgus monkey TNFα (Cynomolgus monkey (Macaca fascicularis), UniProt P79337 77-233); experiment: as above
T3 construct: also called Cynomolgus TNFα; Cyno TNFα
T3 sequence (P79337 77-233 limits assumed): as the sequence (P01375 77-233 limits assumed) above, with L37V, R44T, T72N, R138L counted along it
Procedure: as §1

Rhesus monkey TNFα [6] = biological target: T2, Rhesus monkey TNFα; experiment: cell-based or functional assay
recombinant human TNFα [7] = biological target: T1, recombinant human TNFα; experiment: cell-based or functional assay
[8] = biological target: T3, recombinant Cynomolgus monkey TNFα; experiment: cell-based or functional assay
[9] = biological target: B1; experiment: competition ELISA: scFv coated, biotinylated TNFα 75 ng/mL, unlabeled TNFβ as competitor
From the text: (§2) The quality of recombinant human TNFβ has been analyzed 1) for purity by SDS-page and HPLC analysis, and 2) for biological activity in the mouse L929 cytotoxicity assay, by the manufacturer of the protein.

[10] = biological target: B1; experiment: competition ELISA: scFv coated, biotinylated TNFα, unlabeled TNFβ or TNFα as competitor
From the text: as §2

## B1
Recombinant human TNFβ
  binding result: no binding (tested: 1250 µg/mL)
Recombinant human TNFα [1]
  IC50: 0.0795 mg/L
Recombinant human TNFα [2]
  IC50: 0.0737 mg/L
Rhesus monkey TNFα [3]
  Kd: 1.6 nM
  koff: 0.00022 s⁻¹
  kon: 130000 M⁻¹ s⁻¹
Recombinant human TNFα [4]
  Kd: 0.16 nM
  koff: 6.6e-05 s⁻¹
  kon: 410000 M⁻¹ s⁻¹
[5]
  Kd: 1.1 nM
  koff: 0.00021 s⁻¹
  kon: 180000 M⁻¹ s⁻¹
Rhesus monkey TNFα [6]
  Species-specificity IC50 [ng/mL], rhesus (L929 assay): 71.8 ng/mL
Recombinant human TNFα [7]
  Potency (L929 assay), rel. IC50 (IC50,Infliximab/IC50,scFv, ng/mL): 1.7
  Species-specificity IC50 [ng/mL], human (L929 assay): 6.9 ng/mL
[8]
  Species-specificity IC50 [ng/mL], cyno (L929 assay): 99.3 ng/mL

## B2
[9]
  IC50: > 1250 mg/L
[10]
  Target selectivity, rel. IC50 of TNFβ vs TNFα: > 10000 fold
